The target of assay [1] is T1, Protein S (Mus musculus, UniProt Q08761).
T1 chain: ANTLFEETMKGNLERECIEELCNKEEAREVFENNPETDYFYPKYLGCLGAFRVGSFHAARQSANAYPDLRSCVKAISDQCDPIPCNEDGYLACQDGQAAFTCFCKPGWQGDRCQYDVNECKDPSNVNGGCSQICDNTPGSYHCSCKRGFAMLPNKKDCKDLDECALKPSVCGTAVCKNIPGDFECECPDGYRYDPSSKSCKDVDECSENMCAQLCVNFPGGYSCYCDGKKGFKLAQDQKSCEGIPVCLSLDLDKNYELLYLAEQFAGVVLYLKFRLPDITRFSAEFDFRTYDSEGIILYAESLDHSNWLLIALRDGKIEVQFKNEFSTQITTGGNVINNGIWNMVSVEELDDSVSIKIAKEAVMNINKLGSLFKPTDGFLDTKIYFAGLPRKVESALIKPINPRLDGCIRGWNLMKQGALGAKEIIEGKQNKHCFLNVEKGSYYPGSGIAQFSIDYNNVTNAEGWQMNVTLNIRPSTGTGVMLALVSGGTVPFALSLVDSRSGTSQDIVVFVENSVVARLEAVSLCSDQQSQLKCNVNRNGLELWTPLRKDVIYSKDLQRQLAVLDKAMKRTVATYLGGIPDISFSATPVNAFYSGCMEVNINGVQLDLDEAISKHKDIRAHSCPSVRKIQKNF
As to the kind of experiment: ELISA plate-binding.

The target of assay [2] is T2, Protein S (Homo sapiens, UniProt P07225).
T2 chain: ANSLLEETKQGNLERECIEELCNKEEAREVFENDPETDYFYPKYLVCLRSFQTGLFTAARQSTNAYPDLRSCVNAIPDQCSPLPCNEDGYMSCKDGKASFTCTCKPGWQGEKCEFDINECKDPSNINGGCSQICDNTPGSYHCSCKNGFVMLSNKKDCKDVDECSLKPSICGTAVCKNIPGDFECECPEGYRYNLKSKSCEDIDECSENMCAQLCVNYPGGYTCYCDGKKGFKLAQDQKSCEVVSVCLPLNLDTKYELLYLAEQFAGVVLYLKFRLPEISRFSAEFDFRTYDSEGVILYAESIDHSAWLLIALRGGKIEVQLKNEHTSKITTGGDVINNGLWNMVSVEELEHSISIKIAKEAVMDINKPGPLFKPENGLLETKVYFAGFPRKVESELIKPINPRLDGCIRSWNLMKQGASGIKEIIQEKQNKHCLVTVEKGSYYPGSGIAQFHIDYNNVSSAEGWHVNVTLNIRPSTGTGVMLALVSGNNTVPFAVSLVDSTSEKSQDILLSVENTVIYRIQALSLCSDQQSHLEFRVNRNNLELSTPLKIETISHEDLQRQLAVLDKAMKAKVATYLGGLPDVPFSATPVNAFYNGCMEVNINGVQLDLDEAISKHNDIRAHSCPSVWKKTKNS
As to the kind of experiment: ELISA plate-binding.

B1: C4BPβ 1-119 (protein)
chain: MFFWCACCLMVAWRVSASDAEHCPELPPVDNSIFVAKEVEGQILGTYVCIKGYHLVGKKTLFCNASKEWDNTTTECRLGHCPDPVLVNGEFSSSGPVNVSDKITFMCNDHYILKGSNRS
On to B1, for which the dissociation constant (Kd) turned out to be 0.21 nM in the assay with Protein S [1] and 0.86 nM in the assay with Protein S [2].

(Values after PMC11809661 (2024).)
